From US20220162261A1 (published 2022)
Numbered stars: 1 amine (or outer) side, 2 acyl side, 3 side chain; on linkers, the order of the positions; unused ones are H or OH. Bridge positions count the residues as written; N and C are the ends. Square brackets hold non-standard residues; d marks the D form. Primed or numbered codes have the meaning given here. Ends that are not written are not given here. * marks the point of attachment. Phe(4-OMe)″ = 4-methoxy-phenylalanine, COc1ccc(C[C@H](N[*:1])C(=O)[*:2])cc1; Phe(4-CF3) = N[C@@H](Cc1ccc(C(F)(F)F)cc1)C(=O)O; Phe(4-COOH) = N[C@@H](Cc1ccc(C(=O)O)cc1)C(=O)O; Phe(4-tBu) = CC(C)(C)c1ccc(C[C@H](N)C(=O)O)cc1; Phe(2,4-Cl2) = N[C@@H](Cc1ccc(Cl)cc1Cl)C(=O)O; Phe(2-CONH2) = NC(=O)c1ccccc1C[C@H](N)C(=O)O; Phe(4-CN) = N#Cc1ccc(C[C@H](N)C(=O)O)cc1; Phe(4-F) = N[C@@H](Cc1ccc(F)cc1)C(=O)O; Oleoyl = CCCCCCCC/C=C\CCCCCCCC(=O)*; NMeR = CN[C@@H](CCCNC(=N)N)C(=O)O; Palmitoyl = CCCCCCCCCCCCCCCC(=O)*; Myristoyl = CCCCCCCCCCCCCC(=O)*; Tic = O=C(O)[C@@H]1Cc2ccccc2CN1; β3hE = N[C@@H](CCC(=O)O)CC(=O)O; DIG = diglycolic acid (linker); Pen = CC(C)(S)[C@H](N)C(=O)O; Isovaleryl = CC(C)CC(=O)*; Hexanoyl = CCCCCC(=O)*

Molecular target: T1, human α4β7 integrin on cells (human, UniProt P13612 34-1032; P26010 20-798)
T1 construct: whole, on cells; also called α4β7 cell (Hu); RPMI8866 cells
Test: RPMI8866 cell adhesion to MAdCAM-1

Row | IC50 | Binder
1 | > 1000 nM | Palmitoyl-[Pen][NMeR]SDTL[Pen][Phe(4-tBu)][β3hE][dK]-NH2 (disulfide 1-7) [SEQ ID NO: 178]
2 | > 100 nM | Ac-[Pen][NMeR]SDTQ[Pen][Phe(4-tBu)][β3hE][dK]-NH2 (disulfide 1-7; also: homodimer: two subunits joined by IDA linker) [SEQ ID NO: 187]
3 | > 10000 nM | Ac-[Pen][NMeR]SDDL[Pen][Phe(4-tBu)][β3hE][dK]-NH2 (disulfide 1-7; also: homodimer via IDA linker on D-Lys10 side chains) [SEQ ID NO: 191]
4 | ≤ 10 nM | Ac-[Pen][NMeR]SDIL[Pen][Phe(4-tBu)][β3hE][dK]-NH2 (disulfide 1-7; also: homodimer via IDA linker carrying Alexa-647) [SEQ ID NO: 188]
5 | > 100000 nM | Ac-[Pen][NMeR]SDDL[Pen][Phe(4-tBu)][β3hE][dK]-NH2 (disulfide 1-7; also: homodimer via IDA linker on D-Lys10 side chains, Alexa-647 label) [SEQ ID NO: 193]
6 | > 50 nM | Ac-[Pen][NMeR]SDTL[Pen][Phe(2-CONH2)][dE][dK]-NH2 (disulfide 1-7; not fully specified (residue 10); printed as (Ac Pen N-Me-R S D T L Pen F(2-carbamoyl) e k NH2)2 DIG, disulfide Pen-Pen; also: homodimer (…)2 DIG: the two subunits are joined through the K10 NZ by the DIG linker) [SEQ ID NO: 98]
7 | > 25 nM | Ac-[Pen][NMeR]SDTL[Pen][Phe(4-OMe)″][dE][dK]-NH2 (disulfide 1-7; not fully specified (residue 10); printed as (Ac Pen N-Me-R S D T L Pen F(4-OMe) e k NH2)2 DIG; also: homodimer: two subunits joined by DIG linker) [SEQ ID NO: 103]
8 | > 1000 nM | Oleoyl-[Pen][NMeR]SDTL[Pen][Phe(4-tBu)][β3hE][dK]-NH2 (disulfide 1-7) [SEQ ID NO: 180]
9 | > 500 nM | Ac-[Pen][NMeR]SDTLC[Tic][dE][dK](DIG)-NH2 (disulfide 1-7; also: homodimer (…)2 DIG: the two subunits are joined through the K10 NZ by the DIG linker) [SEQ ID NO: 93]
10 | > 50 nM | C[NMeR]SDTL[Pen]W-NH2 (disulfide 1-7; not fully specified (N-terminus); printed as PEG13 NH2 C N-Me-R S D T L Pen W NH2, disulfide C-Pen; also: N-terminal PEG13 linker, number of subunits not shown, N-terminal linker printed without dimer brackets) [SEQ ID NO: 20]
11 | > 50 nM | Isovaleryl-[Pen][NMeR]SDTL[Pen][Phe(4-tBu)][β3hE][dK]-NH2 (disulfide 1-7) [SEQ ID NO: 177]
12 | 965 nM | Ac-[Pen][NMeR]SDTL[Pen][Phe(4-tBu)][β3hE][dK](Palmitoyl) (disulfide 1-7) [SEQ ID NO: 172]
13 | ≤ 10 nM | Ac-[Pen][NMeR]SDTL[Pen][Phe(4-CN)][β3hE][dK]-NH2 (disulfide 1-7; not fully specified (residue 10); printed as (Ac Pen N-Me-R S D T L Pen F(4-CN) b-H-E k NH2)2 DIG, disulfide Pen-Pen; also: homodimer, two subunits joined by DIG linker) [SEQ ID NO: 139]
14 | > 50 nM | Ac-[Pen][NMeR]SDTL[Pen][Phe(2,4-Cl2)][dE][dK]-NH2 (disulfide 1-7; not fully specified (residue 10); also: homodimer: two subunits joined by DIG linker, F(2,4-ci) as printed) [SEQ ID NO: 101]
15 | ≤ 10 nM | Ac-[Pen][NMeR]SDTL[Pen][Phe(4-tBu)][dE][dK]-NH2 (disulfide 1-7; not fully specified (residue 10); printed as (Ac Pen N-Me-R S D T L Pen F(4tBu) e k NH2)2 DIG, disulfide Pen-Pen; also: homodimer: two subunits joined by DIG linker) [SEQ ID NO: 106]
16 | > 10 nM | Ac-[Pen][NMeR]SDTL[Pen][Phe(4-tBu)][β3hE][dK](Isovaleryl) (disulfide 1-7) [SEQ ID NO: 171]

Row | IC50 | Binder
17 | ≤ 10 nM | Ac-[Pen][NMeR]SDTL[Pen][Phe(4-COOH)][dE][dK]-NH2 (disulfide 1-7; not fully specified (residue 10); printed as (Ac Pen N-Me-R S D T L Pen F(4-COOH) e k NH2)2 DIG; also: homodimer: two subunits joined by DIG linker) [SEQ ID NO: 100]
18 | > 50 nM | Ac-[Pen][NMeR]SDTL[Pen]WE-OH (disulfide 1-7; SMILES CC(=O)N[C@@H]1C(=O)N(C)[C@@H](CCCNC(=N)N)C(=O)N[C@@H](CO)C(=O)N[C@@H](CC(=O)O)C(=O)N[C@@H]([C@@H](C)O)C(=O)N[C@@H](CC(C)C)C(=O)N[C@H](C(=O)N[C@@H](Cc2c[nH]c3ccccc23)C(=O)N[C@@H](CCC(=O)O)C(=O)O)C(C)(C)SSC1(C)C) [SEQ ID NO: 128]
19 | > 10 nM | XRSDTLXWK (not fully specified; (Ac Pen N-Me-R S D T L Pen W k OH)2 DIG; disulfide Pen-Pen) [SEQ ID NO: 76]
20 | > 100 nM | XRSDTLXWK (not fully specified; (Ac Pen N-Me-R S D T L Pen W N-Me-K NH2)2 DIG; disulfide Pen-Pen) [SEQ ID NO: 77]
21 | > 1000 nM | Myristoyl-[Pen][NMeR]SDTL[Pen][Phe(4-tBu)][β3hE][dK]-NH2 (disulfide 1-7) [SEQ ID NO: 181]
22 | > 10 nM | Ac-[Pen][NMeR]SDTL[Pen][Phe(4-tBu)][β3hE][dK](4,4,4‑trifluorobutyryl) (disulfide 1-7) [SEQ ID NO: 169]
23 | > 50 nM | C[NMeR]SDTLCW-NH2 (disulfide 1-7 (inferred); not fully specified (N-terminus); printed as DIG NH2 C N-Me-R S D T L C W NH2; also: N-terminal DIG linker, number of subunits not shown, N-terminal linker printed without dimer brackets) [SEQ ID NO: 6]
24 | > 500 nM | Ac-[Pen][NMeR]SDTL[Pen][Phe(4-tBu)][β3hE][dK](Myristoyl) (disulfide 1-7) [SEQ ID NO: 175]
25 | > 50 nM | Ac-[dK]C[NMeR]SDTLCW[dK]-NH2 (disulfide 2-8 (inferred); not fully specified; printed as DIG (Ac k C N-Me-R S D T L C W k NH2)2 DIG, DIG printed at both ends) [SEQ ID NO: 5]
26 | > 25 nM | Ac-[Pen][NMeR]SDTL[Pen][Phe(4-F)][dE][dK]-NH2 (disulfide 1-7; not fully specified (residue 10); printed as (Ac Pen N-Me-R S D T L Pen F(4-F) e k NH2)2 DIG, disulfide Pen-Pen; also: homodimer: two subunits joined by DIG linker) [SEQ ID NO: 107]
27 | > 1000 nM | [Pen][NMeR]SDTL[Pen][dF]-NH2 (disulfide 1-7; not fully specified (N-terminus); printed as DIG NH2 Pen N-Me-R S D T L Pen f NH2, disulfide Pen-Pen; also: DIG linker at N-terminus, number of subunits not shown, N-terminal linker printed without dimer brackets) [SEQ ID NO: 7]
28 | > 100 nM | XRSDTLXW (Ac Pen N-Me-R S D T L Pen W OH; disulfide Pen-Pen) [SEQ ID NO: 127]
29 | > 50 nM | Hexanoyl-[Pen][NMeR]SDTL[Pen][Phe(4-tBu)][β3hE][dK]-NH2 (disulfide 1-7) [SEQ ID NO: 176]
30 | > 50 nM | Ac-[Pen][NMeR]SDTL[Pen][Phe(4-CF3)][dE][dK]-NH2 (disulfide 1-7; not fully specified (residue 10); printed as (Ac Pen N-Me-R S D T L Pen F(4CF3) e k NH2)2 DIG, disulfide Pen-Pen; also: homodimer: two subunits joined by DIG linker) [SEQ ID NO: 122]
31 | > 10 nM | Ac-[Pen][NMeR]SDTL[Pen][Phe(4-tBu)][β3hE][dK](Hexanoyl) (disulfide 1-7) [SEQ ID NO: 170]
32 | > 1000 nM | Ac-[Pen][NMeR]SDTL[Pen][Phe(4-tBu)][β3hE][dK](Oleoyl) (disulfide 1-7) [SEQ ID NO: 174]
